Test results taken from patent US20260167721A1 (ABLEXIS, published 2026).

Assays:
[1] = target: T1, CD3 on human donor PBMC / Pan T effector cells (human, UniProt P07766 23-207; P09693 23-182; P04234 22-171; P20963 22-164); experiment: cell-based or functional assay
[2] = target: T1, CD3 on human donor PBMC / Pan T …; experiment: cell-based or functional assay; remark: listed apart in the source

T1 sequence (P07766 23-207, chain 1 of 4): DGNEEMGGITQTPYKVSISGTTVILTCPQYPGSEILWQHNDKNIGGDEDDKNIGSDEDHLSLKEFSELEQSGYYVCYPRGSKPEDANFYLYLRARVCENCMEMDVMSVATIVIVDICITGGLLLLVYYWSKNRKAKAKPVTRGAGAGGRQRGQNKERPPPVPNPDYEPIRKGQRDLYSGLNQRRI
T1 sequence (P09693 23-182, chain 2 of 4): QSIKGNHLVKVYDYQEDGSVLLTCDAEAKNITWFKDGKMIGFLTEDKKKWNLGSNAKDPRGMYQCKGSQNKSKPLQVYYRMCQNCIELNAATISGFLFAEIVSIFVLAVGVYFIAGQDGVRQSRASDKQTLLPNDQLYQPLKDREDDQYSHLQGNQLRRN
T1 sequence (P04234 22-171, chain 3 of 4): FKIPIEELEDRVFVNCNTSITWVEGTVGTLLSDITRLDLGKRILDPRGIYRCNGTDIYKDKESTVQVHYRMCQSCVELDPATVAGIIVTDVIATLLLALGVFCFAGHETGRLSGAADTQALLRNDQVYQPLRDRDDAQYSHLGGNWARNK
T1 sequence (P20963 22-164, chain 4 of 4): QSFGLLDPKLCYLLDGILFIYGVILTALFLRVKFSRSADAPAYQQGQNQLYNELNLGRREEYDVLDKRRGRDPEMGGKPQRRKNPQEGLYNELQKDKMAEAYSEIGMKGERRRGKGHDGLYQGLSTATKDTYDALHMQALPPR

Cytokine Release Assay (IL2) Donor 0 EC50 [1] | Cytokine Release Assay (IL2) Donor 0 gMFI max [1] | Cytokine Release Assay (IL2) Donor 1 EC50 [1] | Cytokine Release Assay (IL2) Donor 1 gMFI max [1] | Cytokine Release Assay (IL2) Donor 2 EC50 [1] | Cytokine Release Assay (IL2) Donor 2 gMFI max [1] | Cytokine Release Assay (IL2) Donor 3 EC50 [1] | Cytokine Release Assay (IL2) Donor 3 gMFI max [1] | Cytokine Release Assay (TNFα) Donor 0 EC50 [2] | Cytokine Release Assay (TNFα) Donor 0 gMFI max [2] | Cytokine Release Assay (TNFα) Donor 1 gMFI max [2] | Cytokine Release Assay (TNFα) Donor 2 EC50 [2] | Cytokine Release Assay (TNFα) Donor 2 gMFI max [2] | Cytokine Release Assay (TNFα) Donor 3 EC50 [2] | Cytokine Release Assay (TNFα) Donor 3 gMFI max [2] | Cytokine Release Assay (TNFα) Donor 1 EC50 [2] | Binder
0.104 nM | 29000 gMFI | 0.373 nM | 15900 gMFI | 26.5 nM | 32500 gMFI | 0.24 nM | 42900 gMFI | 0.759 nM | 28000 gMFI | 4400 gMFI | 1.01 nM | 14300 gMFI | 0.653 nM | 24200 gMFI |  | CD3 × CD33-BspAb73 (bispecific antibody) chain 1: EVQLVESGGGLVKPGGSLRLSCAASGFTFSSYSMNWVRQAPGKCLEWVSSVNSRGSYIYYADSVKGRFTISRDNAKDSLYLQMNSLRADDTAVYYCARDRRELLLDYWGQGTLVTVSSGGGGSGGGGSGGGGSGGGGSSYELTQPPSVSVSPGQTARITCSGDALPKKYAYWYQQKSGQAPVLVIYEDSKRPSGIPERFSGSSSGTMATLTISGAQVEDEADYYCYSTDSSGNHSWVFGCGTKLTVLDKTHTCPPCPAPEFEGGPSVFLFPPKPKDTLMISRTPEVTCVVVDVSHEDPEVKFNWYVDGVEVHNAKTKPREEQYNSTYRVVSVLTVLHQDWLNGKEYKCKVSNKALPASIEKTISKAKGQPREPQVYTLPPCREEMTKNQVSLWCLVKGFYPSDIAVEWESNGQPENNYKTTPPVLDSDGSFFLYSKLTVDKSRWQQGNVFSCSVMHEALHNHYTQKSLSLSPGK chain 2: EVQLVQSGAEVKKPGSSVKVSCKASGYTITDSNIHWVRQAPGQSLEWIGYIYPYNGGTDYNQKFKNRATLTVDNPTNTAYMELSSLRSEDTAFYYCVNGNPWLAYWGQGTLVTVSSASTKGPSVFPLAPSSKSTSGGTAALGCLVKDYFPEPVTVSWNSGALTSGVHTFPAVLQSSGLYSLSSVVTVPSSSLGTQTYICNVNHKPSNTKVDKRVEPKSCDKTHTCPPCPAPEFEGGPSVFLFPPKPKDTLMISRTPEVTCVVVDVSHEDPEVKFNWYVDGVEVHNAKTKPREEQYNSTYRVVSVLTVLHQDWLNGKEYKCKVSNKALPASIEKTISKAKGQPREPQVCTLPPSREEMTKNQVSLSCAVKGFYPSDIAVEWESNGQPENNYKTTPPVLDSDGSFFLVSKLTVDKSRWQQGNVFSCSVMHEALHNRFTQKSLSLSPGK chain 3: DIQLTQSPSTLSASVGDRVTITCRASESLDNYGIRFLTWFQQKPGKAPKLLMYAASNQGSGVPSRFSGSGSGTEFTLTISSLQPDDFATYYCQQTKEVPWSFGQGTKVEVKRTVAAPSVFIFPPSDEQLKSGTASVVCLLNNFYPREAKVQWKVDNALQSGNSQESVTEQDSKDSTYSLSSTLTLSKADYEKHKVYACEVTHQGLSSPVTKSFNRGEC
0.121 nM | 33000 gMFI | 0.442 nM | 23100 gMFI | 0.222 nM | 32600 gMFI | 0.0926 nM | 49700 gMFI | 0.114 nM | 44800 gMFI | 5490 gMFI | 0.0497 nM | 18400 gMFI | 0.0635 nM | 26600 gMFI | 0.647 nM | CD3 × CD33-BspAb85 (bispecific antibody) chain 1: EVQLVESGGGLVKPGGSLRLSCAASGFTFSSYSMNWVRQAPGKCLEWVSSISRSSGYIFYADSVKGRFTISRDNAKNSLYLQMNSLRAEDTAVYYCVRERVGAGFDYWGQGTLVTVSSGGGGSGGGGSGGGGSGGGGSNFMLTQPHSVSESPGKTVAISCTRSSGSIASNYVQWYQQRPGSSPTAVIYEDNQRPSGVPDRFSGSIDSSSNSAFLTISGLKTEDEADYYCQSYDSSNRVFGCGTKLTVLDKTHTCPPCPAPEFEGGPSVFLFPPKPKDTLMISRTPEVTCVVVDVSHEDPEVKFNWYVDGVEVHNAKTKPREEQYNSTYRVVSVLTVLHQDWLNGKEYKCKVSNKALPASIEKTISKAKGQPREPQVYTLPPCREEMTKNQVSLWCLVKGFYPSDIAVEWESNGQPENNYKTTPPVLDSDGSFFLYSKLTVDKSRWQQGNVFSCSVMHEALHNHYTQKSLSLSPGK chain 2: EVQLVQSGAEVKKPGSSVKVSCKASGYTITDSNIHWVRQAPGQSLEWIGYIYPYNGGTDYNQKFKNRATLTVDNPTNTAYMELSSLRSEDTAFYYCVNGNPWLAYWGQGTLVTVSSASTKGPSVFPLAPSSKSTSGGTAALGCLVKDYFPEPVTVSWNSGALTSGVHTFPAVLQSSGLYSLSSVVTVPSSSLGTQTYICNVNHKPSNTKVDKRVEPKSCDKTHTCPPCPAPEFEGGPSVFLFPPKPKDTLMISRTPEVTCVVVDVSHEDPEVKFNWYVDGVEVHNAKTKPREEQYNSTYRVVSVLTVLHQDWLNGKEYKCKVSNKALPASIEKTISKAKGQPREPQVCTLPPSREEMTKNQVSLSCAVKGFYPSDIAVEWESNGQPENNYKTTPPVLDSDGSFFLVSKLTVDKSRWQQGNVFSCSVMHEALHNRFTQKSLSLSPGK chain 3: DIQLTQSPSTLSASVGDRVTITCRASESLDNYGIRFLTWFQQKPGKAPKLLMYAASNQGSGVPSRFSGSGSGTEFTLTISSLQPDDFATYYCQQTKEVPWSFGQGTKVEVKRTVAAPSVFIFPPSDEQLKSGTASVVCLLNNFYPREAKVQWKVDNALQSGNSQESVTEQDSKDSTYSLSSTLTLSKADYEKHKVYACEVTHQGLSSPVTKSFNRGEC

More lines, now with the values behind:

Binder | Cytokine Release Assay (IL2) Donor 0 EC50 [1] | Cytokine Release Assay (IL2) Donor 0 gMFI max [1] | Cytokine Release Assay (IL2) Donor 1 EC50 [1] | Cytokine Release Assay (IL2) Donor 1 gMFI max [1] | Cytokine Release Assay (IL2) Donor 2 EC50 [1] | Cytokine Release Assay (IL2) Donor 2 gMFI max [1] | Cytokine Release Assay (IL2) Donor 3 EC50 [1] | Cytokine Release Assay (IL2) Donor 3 gMFI max [1] | Cytokine Release Assay (TNFα) Donor 0 EC50 [2] | Cytokine Release Assay (TNFα) Donor 0 gMFI max [2] | Cytokine Release Assay (TNFα) Donor 1 gMFI max [2] | Cytokine Release Assay (TNFα) Donor 2 EC50 [2] | Cytokine Release Assay (TNFα) Donor 2 gMFI max [2] | Cytokine Release Assay (TNFα) Donor 3 EC50 [2] | Cytokine Release Assay (TNFα) Donor 3 gMFI max [2] | Cytokine Release Assay (TNFα) Donor 1 EC50 [2]
CD3 × CD33-BspAb72 (bispecific antibody) chain 1: EVQLVESGGGLVQPGGSLRLSCAASGFTFSSYSMNWVRQAPGKCLEWVSYISSSSSTIYYADSVKGRFTISRDNAKNSLYLQMNSLRDEDTAVYYCARDGPVDYGMDVWGQGTTVTVSSGGGGSGGGGSGGGGSGGGGSSYELTQPPSVSVSPGQTARITCSGDALPKQYTYWYQQKPGQAPVLVIYKDSERPSGIPERFSGSSSGTTVTLTISGVQAEDEADYYCQSADSSGTYRVFGCGTKLTVLDKTHTCPPCPAPEFEGGPSVFLFPPKPKDTLMISRTPEVTCVVVDVSHEDPEVKFNWYVDGVEVHNAKTKPREEQYNSTYRVVSVLTVLHQDWLNGKEYKCKVSNKALPASIEKTISKAKGQPREPQVYTLPPCREEMTKNQVSLWCLVKGFYPSDIAVEWESNGQPENNYKTTPPVLDSDGSFFLYSKLTVDKSRWQQGNVFSCSVMHEALHNHYTQKSLSLSPGK chain 2: EVQLVQSGAEVKKPGSSVKVSCKASGYTITDSNIHWVRQAPGQSLEWIGYIYPYNGGTDYNQKFKNRATLTVDNPTNTAYMELSSLRSEDTAFYYCVNGNPWLAYWGQGTLVTVSSASTKGPSVFPLAPSSKSTSGGTAALGCLVKDYFPEPVTVSWNSGALTSGVHTFPAVLQSSGLYSLSSVVTVPSSSLGTQTYICNVNHKPSNTKVDKRVEPKSCDKTHTCPPCPAPEFEGGPSVFLFPPKPKDTLMISRTPEVTCVVVDVSHEDPEVKFNWYVDGVEVHNAKTKPREEQYNSTYRVVSVLTVLHQDWLNGKEYKCKVSNKALPASIEKTISKAKGQPREPQVCTLPPSREEMTKNQVSLSCAVKGFYPSDIAVEWESNGQPENNYKTTPPVLDSDGSFFLVSKLTVDKSRWQQGNVFSCSVMHEALHNRFTQKSLSLSPGK chain 3: DIQLTQSPSTLSASVGDRVTITCRASESLDNYGIRFLTWFQQKPGKAPKLLMYAASNQGSGVPSRFSGSGSGTEFTLTISSLQPDDFATYYCQQTKEVPWSFGQGTKVEVKRTVAAPSVFIFPPSDEQLKSGTASVVCLLNNFYPREAKVQWKVDNALQSGNSQESVTEQDSKDSTYSLSSTLTLSKADYEKHKVYACEVTHQGLSSPVTKSFNRGEC | 8.21 nM | 23000 gMFI | 4.28 nM | 17300 gMFI | 2.16 nM | 16400 gMFI | 8.36 nM | 26300 gMFI |  | 23400 gMFI | 4410 gMFI | 16.9 nM | 8010 gMFI | 42.5 nM | 11200 gMFI | 
CD3 × CD33-BspAb86 (bispecific antibody) chain 1: EVQLVESGGGLVKPGGSLRLSCAASGFTFSSYSMNWVRQAPGKCLEWVSSISRSGTYIYYADSVKGRFTISRDNAKNSLYLQMNSLRAEDTAVYYCARERWELLYFDYWGQGTLVTVSSGGGGSGGGGSGGGGSGGGGSQTVVTQEPSLTVSPGGTVTLTCASSTGAVTSGYYPNWFQQKPGQAPRALIYSTSNKHSWTPARFSGSLLGGKAALTLSGVQPEDEAEYYCLLYYGGAYVFGCGTKVTVLDKTHTCPPCPAPEFEGGPSVFLFPPKPKDTLMISRTPEVTCVVVDVSHEDPEVKFNWYVDGVEVHNAKTKPREEQYNSTYRVVSVLTVLHQDWLNGKEYKCKVSNKALPASIEKTISKAKGQPREPQVYTLPPCREEMTKNQVSLWCLVKGFYPSDIAVEWESNGQPENNYKTTPPVLDSDGSFFLYSKLTVDKSRWQQGNVFSCSVMHEALHNHYTQKSLSLSPGK chain 2: EVQLVQSGAEVKKPGSSVKVSCKASGYTITDSNIHWVRQAPGQSLEWIGYIYPYNGGTDYNQKFKNRATLTVDNPTNTAYMELSSLRSEDTAFYYCVNGNPWLAYWGQGTLVTVSSASTKGPSVFPLAPSSKSTSGGTAALGCLVKDYFPEPVTVSWNSGALTSGVHTFPAVLQSSGLYSLSSVVTVPSSSLGTQTYICNVNHKPSNTKVDKRVEPKSCDKTHTCPPCPAPEFEGGPSVFLFPPKPKDTLMISRTPEVTCVVVDVSHEDPEVKFNWYVDGVEVHNAKTKPREEQYNSTYRVVSVLTVLHQDWLNGKEYKCKVSNKALPASIEKTISKAKGQPREPQVCTLPPSREEMTKNQVSLSCAVKGFYPSDIAVEWESNGQPENNYKTTPPVLDSDGSFFLVSKLTVDKSRWQQGNVFSCSVMHEALHNRFTQKSLSLSPGK chain 3: DIQLTQSPSTLSASVGDRVTITCRASESLDNYGIRFLTWFQQKPGKAPKLLMYAASNQGSGVPSRFSGSGSGTEFTLTISSLQPDDFATYYCQQTKEVPWSFGQGTKVEVKRTVAAPSVFIFPPSDEQLKSGTASVVCLLNNFYPREAKVQWKVDNALQSGNSQESVTEQDSKDSTYSLSSTLTLSKADYEKHKVYACEVTHQGLSSPVTKSFNRGEC | 4.13 nM | 34400 gMFI | 4.24 nM | 18800 gMFI | 6.46 nM | 22100 gMFI | 3.52 nM | 42100 gMFI | 2.15 nM | 34100 gMFI | 4900 gMFI | 2.19 nM | 10900 gMFI | 5.58 nM | 25200 gMFI | 
